Article PMC7360973, “Feedback regulation of heat shock factor 1 (Hsf1) activity by Hsp70‐mediated trimer unzipping and dissociation from DNA” (The EMBO Journal, 2020)
Values belong to the binder of their own block, whether it stands above or below them. Ends that are not written are not given here.

Columns and labels:
[1] = biological target: the molecule itself; assay: SEC + native gel or EMSA; trimer-to-monomer ratio of freshly purified Hsf1 in the absence of heat shock, by gel filtration (Superdex 200) and BN-PAGE
[2] = biological target: the molecule itself; assay: native gel or EMSA; blue-native PAGE of lysates (15 μg total protein) of transfected HSF1−/− MEFs, immunoblot with Hsf1 antiserum
Human Hsc70 (HSPA8) [3] = biological target: T1, Human Hsc70 (HSPA8) (human, UniProt P11142 1-646); assay: HDX-MS; 6 μM Hsf1 (monomer or trimer) pre-incubated 30 min at 25°C with 12 μM Hsc70 or 9 μM DnaJB1 in 25 mM HEPES/NaOH pH 7.5, 150 mM NaCl, 10% glycerol, 2 mM DTT; diluted 10-fold in D2O buffer, 30 s at 25°C; online pepsin digestion; conditions: both partners purified
T1 construct: Hsc70 (HSPA8), constitutive Hsp70, human, wild type; In the functional rows from MEF and HeLa cells the Hsc70/Hsp70 is the cells' own; this molecule stands for it there; source: E. coli BL21 (DE3) Rosetta, purified (Ni-IDA, Ulp1 cleavage, reverse Ni-IDA)

Human Hsc70 (HSPA8) [4] = biological target: T1, Human Hsc70 (HSPA8); assay: fluorescence polarisation; fluorescein-labelled peptide at 1 μM titrated with Hsc70 (0–60 μM), 2 h at 25°C, HKM150 buffer (25 mM HEPES/KOH pH 7.6, 150 mM KCl, 5 mM MgCl2); Hsc70 concentrated in the presence of 1 mM ATP; quadratic fit; conditions: both partners purified
[5] = biological target: the molecule itself; assay: native gel or EMSA; blue-native PAGE (8% gel, on ice) of purified Hsf1 wild type or variants, also after 10 min at 4–42°C (5 μM protein); Coomassie stain or immunoblot with Hsf1 antiserum

T1 sequence (P11142 whole entry): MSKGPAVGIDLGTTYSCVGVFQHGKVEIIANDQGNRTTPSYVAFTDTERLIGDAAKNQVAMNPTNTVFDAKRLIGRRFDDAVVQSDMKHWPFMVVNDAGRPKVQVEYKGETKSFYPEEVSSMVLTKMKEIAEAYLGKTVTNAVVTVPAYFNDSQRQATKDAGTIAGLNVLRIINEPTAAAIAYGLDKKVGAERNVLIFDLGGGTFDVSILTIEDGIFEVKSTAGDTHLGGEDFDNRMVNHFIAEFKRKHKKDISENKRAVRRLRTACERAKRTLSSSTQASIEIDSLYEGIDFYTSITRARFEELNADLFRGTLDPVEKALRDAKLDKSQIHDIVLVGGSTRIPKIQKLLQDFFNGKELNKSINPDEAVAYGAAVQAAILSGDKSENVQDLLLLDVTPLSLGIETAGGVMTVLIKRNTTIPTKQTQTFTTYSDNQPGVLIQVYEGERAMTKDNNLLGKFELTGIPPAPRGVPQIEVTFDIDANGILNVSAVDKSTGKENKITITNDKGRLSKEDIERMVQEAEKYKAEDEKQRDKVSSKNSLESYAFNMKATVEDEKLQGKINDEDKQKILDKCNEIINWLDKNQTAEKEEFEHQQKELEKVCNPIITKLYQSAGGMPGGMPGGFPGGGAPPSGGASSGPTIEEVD

binding result (Human Hsc70 (HSPA8) [4]): binds
B5: Hsf1 peptide Y468‐S480‐C (peptide)
peptide: YTAQPLFLLDPGSC(fluorescein‑5‑maleimide)
notes: Hsf1, human, residues 468-480 (in the TAD); C-terminal cysteine for labelling, not part of the Hsf1 stretch

binding result (Human Hsc70 (HSPA8) [4]): binds
B6: Hsf1 peptide N200‐K208‐C (peptide)
peptide: NRILGVKRKC(fluorescein‑5‑maleimide)
notes: Hsf1, human, residues 200-208; C-terminal cysteine for labelling, not part of the Hsf1 stretch

binding result (Human Hsc70 (HSPA8) [4]): binds
B8: Hsf1 peptide G204‐N214‐C (peptide)
peptide: GVKRKIPLMLNC(fluorescein‑5‑maleimide)
notes: Hsf1, human, residues 204-214; C-terminal cysteine for labelling, not part of the Hsf1 stretch

Further lines, the binder ahead of its results:

B1: Hsf1‐I190S,I194S (natural protein, human, UniProt Q00613 1-529, looked up)
chain: MDLPVGPGAAGPSNVPAFLTKLWTLVSDPDTDALICWSPSGNSFHVFDQGQFAKEVLPKYFKHNNMASFVRQLNMYGFRKVVHIEQGGLVKPERDDTEFQHPCFLRGQEQLLENIKRKVTSVSTLKSEDIKIRQDSVTKLLTDVQLMKGKQECMDSKLLAMKHENEALWREVASLRQKHAQQQKVVNKLSQFLSSLVQSNRILGVKRKIPLMLNDSGSAHSMPKYSRQFSLEHVHGSGPYSAPSPAYSSSSLYAPDAVASSGPIISDITELAPASPMASPGGSIDERPLSSSPLVRVKEEPPSPPQSPRVEEASPGRPSSVDTLLSPTALIDSILRESEPAPASVTALTDARGHTDTEGRPPSPPPTSTPEKCLSVACLDKNELSDHLDAMDSNLDNLQTMLSSHGFSVDTSALLDLFSPSVTVPDMSLPDLDSSLASIQELLSPQEPPRPPEAENSSPDSGKQLVHYTAQPLFLLDPGSVDTGSNDLPVLFELGEGSYFSEGDGFAEDPTISLLTGSEPPKAKDPTVS
notes: Hsf1, human, with I190S and I194S in HR-B; source: purified (gel filtration)
stoichiometry N [1]: 3

B2: Hsf1‐I202S,L203S,V205S expressed from pIRES‐HSF1‐I202S,L203S,V205S_hrGFP in cells (natural protein, human, UniProt Q00613 1-529, looked up)
chain: MDLPVGPGAAGPSNVPAFLTKLWTLVSDPDTDALICWSPSGNSFHVFDQGQFAKEVLPKYFKHNNMASFVRQLNMYGFRKVVHIEQGGLVKPERDDTEFQHPCFLRGQEQLLENIKRKVTSVSTLKSEDIKIRQDSVTKLLTDVQLMKGKQECMDSKLLAMKHENEALWREVASLRQKHAQQQKVVNKLIQFLISLVQSNRSSGSKRKIPLMLNDSGSAHSMPKYSRQFSLEHVHGSGPYSAPSPAYSSSSLYAPDAVASSGPIISDITELAPASPMASPGGSIDERPLSSSPLVRVKEEPPSPPQSPRVEEASPGRPSSVDTLLSPTALIDSILRESEPAPASVTALTDARGHTDTEGRPPSPPPTSTPEKCLSVACLDKNELSDHLDAMDSNLDNLQTMLSSHGFSVDTSALLDLFSPSVTVPDMSLPDLDSSLASIQELLSPQEPPRPPEAENSSPDSGKQLVHYTAQPLFLLDPGSVDTGSNDLPVLFELGEGSYFSEGDGFAEDPTISLLTGSEPPKAKDPTVS
notes: Hsf1, human, with I202S, L203S, V205S; source: HSF1−/− MEF or HeLa, transiently transfected, in lysate or in cells
stoichiometry N [2]: 3

B3: Human heat shock transcription factor 1 (Hsf1), wild type (natural protein, UniProt Q00613 1-529, looked up)
chain: MDLPVGPGAAGPSNVPAFLTKLWTLVSDPDTDALICWSPSGNSFHVFDQGQFAKEVLPKYFKHNNMASFVRQLNMYGFRKVVHIEQGGLVKPERDDTEFQHPCFLRGQEQLLENIKRKVTSVSTLKSEDIKIRQDSVTKLLTDVQLMKGKQECMDSKLLAMKHENEALWREVASLRQKHAQQQKVVNKLIQFLISLVQSNRILGVKRKIPLMLNDSGSAHSMPKYSRQFSLEHVHGSGPYSAPSPAYSSSSLYAPDAVASSGPIISDITELAPASPMASPGGSIDERPLSSSPLVRVKEEPPSPPQSPRVEEASPGRPSSVDTLLSPTALIDSILRESEPAPASVTALTDARGHTDTEGRPPSPPPTSTPEKCLSVACLDKNELSDHLDAMDSNLDNLQTMLSSHGFSVDTSALLDLFSPSVTVPDMSLPDLDSSLASIQELLSPQEPPRPPEAENSSPDSGKQLVHYTAQPLFLLDPGSVDTGSNDLPVLFELGEGSYFSEGDGFAEDPTISLLTGSEPPKAKDPTVS
notes: heat shock transcription factor 1 (Hsf1), human, wild type; Purified both as a monomer and as a trimer; One molecule is used for both states; the assay's format tells which was used; also called Hsf1wt; wt; source: E. coli BL21 (DE3) Rosetta, purified (Ni-IDA, Ulp1 cleavage, Superdex 200); monomeric and trimeric fractions collected separately; not shown: His6-SUMO, N-terminal, cleaved
binding result (Human Hsc70 (HSPA8) [3]): binds

B4: Hsf1 peptide S461‐Q471‐C (peptide)
peptide: SGKQLVHYTAQC(fluorescein‑5‑maleimide)
notes: Hsf1, human, residues 461-471 (in the TAD); C-terminal cysteine for labelling, not part of the Hsf1 stretch; also called residues 461–471
Kd (Human Hsc70 (HSPA8) [4]): 5 to 30 µM

B7: Hsf1∆(202–213) (natural protein, human, UniProt Q00613 1-529, looked up)
chain: MDLPVGPGAAGPSNVPAFLTKLWTLVSDPDTDALICWSPSGNSFHVFDQGQFAKEVLPKYFKHNNMASFVRQLNMYGFRKVVHIEQGGLVKPERDDTEFQHPCFLRGQEQLLENIKRKVTSVSTLKSEDIKIRQDSVTKLLTDVQLMKGKQECMDSKLLAMKHENEALWREVASLRQKHAQQQKVVNKLIQFLISLVQSNRNDSGSAHSMPKYSRQFSLEHVHGSGPYSAPSPAYSSSSLYAPDAVASSGPIISDITELAPASPMASPGGSIDERPLSSSPLVRVKEEPPSPPQSPRVEEASPGRPSSVDTLLSPTALIDSILRESEPAPASVTALTDARGHTDTEGRPPSPPPTSTPEKCLSVACLDKNELSDHLDAMDSNLDNLQTMLSSHGFSVDTSALLDLFSPSVTVPDMSLPDLDSSLASIQELLSPQEPPRPPEAENSSPDSGKQLVHYTAQPLFLLDPGSVDTGSNDLPVLFELGEGSYFSEGDGFAEDPTISLLTGSEPPKAKDPTVS
notes: source: E. coli BL21 (DE3) Rosetta, purified (Ni-IDA, Ulp1 cleavage, Superdex 200); not shown: His6-SUMO, N-terminal, cleaved
binding result [5]: binds
